Residue numbers refer to the chain shown, from its start. Bridge positions count the residues as written; N and C are the ends. Square brackets hold non-standard residues; d marks the D form. Ends that are not written are not given here. Orn = NCCC[C@H](N)C(=O)O
B1: [Glu9,Leu14,Phe25,Tyr13]Exendin-4(1-27)-Peg3-Orn-[Leu2]Gastrin4 (peptide)
peptide: HGEGTFTSELSKYLEEEAVRLFIEFLK[Peg3][Orn]WLDF-NH2
B2: [Glu9,Leu14,Phe25,Tyr13]Exendin-4(1-27)-Peg3-[Leu2]Gastrin4 (peptide)
peptide: HGEGTFTSELSKYLEEEAVRLFIEFLK[Peg3]WLDF-NH2
B3: [Tyr13,Phe25]Exendin-4(1-27)-Peg3-Peg3-[Leu4]Gastrin6 (peptide)
peptide: HGEGTFTSDLSKYMEEEAVRLFIEFLK[Peg3][Peg3]YGWLDF-NH2
B4: [Glu9,Leu14,Phe25,Tyr13]Exendin-4(1-27)-Orn-Peg3-[Leu4]Gastrin6 (peptide)
peptide: HGEGTFTSELSKYLEEEAVRLFIEFLK[Orn][Peg3]YGWLDF-NH2
B5: [Arg12,27,Leu14,Lys20,Phe25,Tyr13]Exendin-4(1-27)-Peg3-[Leu4]Gastrin6 (peptide)
peptide: HGEGTFTSDLSRYLEEEAVKLFIEFLR[Peg3]YGWLDF-NH2
B6: [Glu9,Leu14,Phe25,Tyr13]Exendin-4(1-27)-Orn-Orn-[Leu2]Gastrin4 (peptide)
peptide: HGEGTFTSELSKYLEEEAVRLFIEFLK[Orn][Orn]WLDF-NH2
modifications: N-terminus assumed
SMILES: CC[C@H](C)[C@H](NC(=O)[C@H](Cc1ccccc1)NC(=O)[C@H](CC(C)C)NC(=O)[C@H](CCCNC(=N)N)NC(=O)[C@@H](NC(=O)[C@H](C)NC(=O)[C@H](CCC(=O)O)NC(=O)[C@H](CCC(=O)O)NC(=O)[C@H](CCC(=O)O)NC(=O)[C@H](CC(C)C)NC(=O)[C@H](Cc1ccc(O)cc1)NC(=O)[C@H](CCCCN)NC(=O)[C@H](CO)NC(=O)[C@H](CC(C)C)NC(=O)[C@H](CCC(=O)O)NC(=O)[C@H](CO)NC(=O)[C@@H](NC(=O)[C@H](Cc1ccccc1)NC(=O)[C@@H](NC(=O)CNC(=O)[C@H](CCC(=O)O)NC(=O)CNC(=O)[C@@H](N)Cc1c[nH]cn1)[C@@H](C)O)[C@@H](C)O)C(C)C)C(=O)N[C@@H](CCC(=O)O)C(=O)N[C@@H](Cc1ccccc1)C(=O)N[C@@H](CC(C)C)C(=O)N[C@@H](CCCCN)C(=O)N[C@@H](CCCN)C(=O)N[C@@H](CCCN)C(=O)N[C@@H](Cc1c[nH]c2ccccc12)C(=O)N[C@@H](CC(C)C)C(=O)N[C@@H](CC(=O)O)C(=O)N[C@@H](Cc1ccccc1)C(N)=O
B7: [Glu9,Leu14,Phe25,Tyr13]Exendin-4(1-27)-[Leu4]Gastrin6 (peptide)
peptide: HGEGTFTSELSKYLEEEAVRLFIEFLKYGWLDF-NH2
B8: Side chain-cyclo([Lys20,Glu24]Exendin-4(1-28)-Peg3-Peg3-[Leu4]Gastrin6 (peptide)
peptide: HGEGTFTSDLSKQMEEEAVKLFIEWLKN[Peg3][Peg3]YGWLDF-NH2
modifications: lactam 20-24
B9: [Orn20]Exendin-4(1-28)-Peg3-Peg3-[Leu4]Gastrin6 (peptide)
peptide: HGEGTFTSDLSKQMEEEAV[Orn]LFIEWLKN[Peg3][Peg3]YGWLDF-NH2
B10: Exendin-4(1-28)-[Thr4]Gastrin6 (peptide)
peptide: HGEGTFTSDLSKQMEEEAVRLFIEWLKNYGWTDF
modifications: C-terminal amide
B11: [Leu14]Exendin-4(1-28)-[1Nal3,Leu4]Gastrin6 (peptide)
peptide: B10 peptide with M14L, W31X, T32L
modifications: 1Nal (1-naphthylalanine) at position 3 of the Gastrin6 moiety; C-terminal amide
B12: Exendin-4(1-28)-[Leu4]Gastrin6 (peptide)
peptide: B10 peptide with T32L
modifications: C-terminal amide
B13: Exendin-4(1-28)-[Phe4]Gastrin6 (peptide)
peptide: B10 peptide with T32F
modifications: C-terminal amide
B14: [Leu14]Exendin-4(1-28)-[Nle4]Gastrin6 (peptide)
peptide: B10 peptide with M14L, T32X
modifications: Nle at position 4 of the Gastrin6 moiety; C-terminal amide
B15: [Glu9,Leu14,Phe25,Tyr13]Exendin-4(1-27)-Peg3-Peg3-[Leu4,Phe3]Gastrin6 (peptide)
peptide: HGEGTFTSELSKYLEEEAVRLFIEFLK[Peg3][Peg3]YGFLDF-NH2
B16: [Arg12,27,Leu14,Lys24,Phe25,Tyr13]Exendin-4(1-27)-Peg3-[Leu4]Gastrin6 (peptide)
peptide: HGEGTFTSDLSRYLEEEAVRLFIKFLR[Peg3]YGWLDF-NH2
B17: Side chain-cyclo([Glu16,Lys20]Exendin-4(1-28)-Peg3-Peg3-[Leu4]Gastrin6 (peptide)
peptide: HGEGTFTSDLSKQMEEEAVKLFIEWLKN[Peg3][Peg3]YGWLDF-NH2
modifications: lactam 16-20

molecular target: human GLP-1 receptor (human, UniProt P43220 24-463); experiment: cell-based or functional assay

B1 and B2 are within 1.5-fold of each other in “hGLP-1 R EC50 (cAMP)” value: 41 pM for the first, 60 pM for the second.

First: B3
Second: B4
The “hGLP-1 R EC50 (cAMP)” value of the first is 3.4-fold lower: 35 pM for the first, 120 pM for the second.

First: B5
Second: B6
The “hGLP-1 R EC50 (cAMP)” value of the first is 1.9-fold lower: 58 pM for the first, 110 pM for the second.

Going from B7 to B8, the “hGLP-1 R EC50 (cAMP)” value falls from 110 pM to 32 pM (3.4-fold).

B9 and B10 are within 1.5-fold of each other in “hGLP-1 R EC50 (cAMP)” value: 38 pM for the first, 44 pM for the second.

First: B11
Second: B12
The “hGLP-1 R EC50 (cAMP)” value of the first is 1.5-fold lower: 40 pM for the first, 61 pM for the second.

B13 and B14 are within 1.5-fold of each other in “hGLP-1 R EC50 (cAMP)” value: 44 pM for the first, 52 pM for the second.

Compared with B15, B16 is 4.1-fold higher in “hGLP-1 R EC50 (cAMP)” value: 32 pM for the first, 130 pM for the second.

With B17 the “hGLP-1 R EC50 (cAMP)” value was 26 pM.

molecular target: T1, human CCK-B receptor (human, UniProt P32239 1-447); experiment: cell-based or functional assay
T1 sequence (looked up): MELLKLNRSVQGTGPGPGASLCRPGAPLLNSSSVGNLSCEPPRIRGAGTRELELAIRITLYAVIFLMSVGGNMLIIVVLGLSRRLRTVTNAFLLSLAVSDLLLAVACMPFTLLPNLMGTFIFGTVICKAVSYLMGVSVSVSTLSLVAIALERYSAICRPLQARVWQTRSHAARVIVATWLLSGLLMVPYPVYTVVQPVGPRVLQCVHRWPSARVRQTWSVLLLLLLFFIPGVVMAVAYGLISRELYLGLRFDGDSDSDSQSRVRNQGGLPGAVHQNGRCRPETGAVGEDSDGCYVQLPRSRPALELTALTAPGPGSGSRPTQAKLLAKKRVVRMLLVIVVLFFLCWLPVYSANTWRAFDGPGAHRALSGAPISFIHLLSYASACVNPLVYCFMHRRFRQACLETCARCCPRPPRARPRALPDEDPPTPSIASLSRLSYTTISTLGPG

First: B1
Second: B2
The “hCCK-B R EC50 (p-ERK)” value of the first is 3.9-fold higher: 51 nM for the first, 13 nM for the second.

Going from B3 to B4, the “hCCK-B R EC50 (p-ERK)” value rises from 8.4 nM to 100 nM (12-fold).

Compared with B5, B6 is 33-fold higher in “hCCK-B R EC50 (p-ERK)” value: 26 nM for the first, 860 nM for the second.

Going from B7 to B8, the “hCCK-B R EC50 (p-ERK)” value falls from 30 nM to 4 nM (7.5-fold).

Going from B9 to B10, the “hCCK-B R EC50 (p-ERK)” value rises from 15 nM to 58 nM (3.9-fold).

First: B11
Second: B12
The “hCCK-B R EC50 (p-ERK)” value of the first is 19-fold higher: 270 nM for the first, 14 nM for the second.

First: B13
Second: B14
The “hCCK-B R EC50 (p-ERK)” value of the first is 5.8-fold higher: 140 nM for the first, 24 nM for the second.

Compared with B15, B16 is 36-fold lower in “hCCK-B R EC50 (p-ERK)” value: 1300 nM for the first, 36 nM for the second.

Reference: US20130143793A1 (ZEALAND PHARMA A S, published 2013)
